Patent publication US20230295301A1 (SHANGHAI JUNSHI BIOSCIENCES, published 2023)
Numbering of substitutions follows the chain as printed.

Target: T1, huCTLA-4 ECD (his-tag) (human, UniProt P16410 37-162)
T1 construct: also called HX1 hCTLA4 his; HX1 huCTLA4 his; not shown: his-tag
T1 sequence: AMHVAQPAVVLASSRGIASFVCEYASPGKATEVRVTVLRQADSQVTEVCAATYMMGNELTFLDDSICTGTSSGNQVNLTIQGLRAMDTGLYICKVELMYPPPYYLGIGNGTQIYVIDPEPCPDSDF
Experiment: ELISA, coated huCTLA-4 his
Procedure: HX1 hCTLA4 his was diluted with PBS (Hyclone) to 1.0 μg/mL, and the dilution was added to a microplate at 100 μL/well. The plate was let stand in an incubator at 37° C. and coated for 90 min and then washed, and 2% BSA was added to the plate at 200 μL/well. The plate was incubated in an incubator at 37° C. for 90 min and then washed. The humanized anti-CTLA-4 antibodies in Table 4 and the control antibody (ipilimumab) were diluted with a diluent (2% BSA) to 1000 ng/mL. The dilution performed each time was not higher than 10-fold. Then, the humanized antibodies and the control antibody were serially diluted 2.5-fold on a sample dilution plate. All the humanized antibody solutions and the control antibody solution were added to a microplate at 100 μL/well. The plate was incubated in an incubator at 37° C. for 60 min and then washed. An HRP-conjugated goat anti-human antibody IgG (Fc specific) was diluted 5000-fold with 2% BSA, and the dilution was added to the microplate at 100 μL/well. The plate was incubated in an incubator at 37° C. for 60 min and then washed. The color development solution TMB was added at 100 μL/well, during which bubbles were avoided. Color development was allowed at 37° C. for 15 min in the dark and then terminated by adding 2 M hydrochloric acid solution at 100 μL/well, during which bubbles were avoided. Reading (wavelength: 450/620 nm) was done within 10 min using a microplate reader.

B1: huJS007-48 (antibody, human IgG1, kappa, V domains shown)
VH: QVQLQESGPGLVKPSQTLSLTCTVSAYSITSGYYWNWIRQHPGKGLEWIGYIGYDGSNNYNPSLKSRVTISRDTSKNQFSLKLSSVTAADTAVYYCARDYYSGYFDSWGQGTTLTVSS
VL: DIQMTQSPSSLSASVGDRVTITCRASQNVGTYVAWYQQKPGKAPKPLIYSTSYRYSGVPSRFSGSGSGTDFTLTISSLQPEDFATYFCHQYDTYPLTFGAGTKLELKR
binding result: binds

B2: HuJS007-46 (antibody, V domains shown)
VH: B1 VH
VL: DIVMTQSPDSLAVSLGERATINCKASQNVGTYVAWYQQKPGQPPKPLIYSTSYRYSGVPDRFSGSGSGTDFTLTISSLQAEDVAVYFCHQYDTYPLTFGAGTKLELK
notes: 4B7 VH2-2 + 4B7VL1; constant regions not specified
binding result: binds

B3: HuJS007-51 (antibody, V domains shown)
VH: B1 VH
VL: B2 VL with P46L, F87Y, A100Q, L106I
notes: 4B7 VH2-2 + 4B7VL6; constant regions not specified
binding result: binds

B4: HuJS007-53 (antibody, V domains shown)
VH: B1 VH
VL: B2 VL with A100Q, L106I
notes: 4B7 VH2-2 + 4B7VL8; constant regions not specified
binding result: binds

B5: HuJS007-55 (antibody, V domains shown)
VH: B1 VH with Q16E, A26G, H41P
VL: B2 VL
notes: 4B7 VH2-3 + 4B7VL1; constant regions not specified
binding result: binds

B6: HuJS007-60 (antibody, V domains shown)
VH: B1 VH with Q16E, A26G, H41P
VL: B2 VL with P46L, F87Y, A100Q, L106I
notes: 4B7 VH2-3 + 4B7VL6; constant regions not specified
binding result: binds

B7: HuJS007-62 (antibody, V domains shown)
VH: B1 VH with Q16E, A26G, H41P
VL: B2 VL with A100Q, L106I
notes: 4B7 VH2-3 + 4B7VL8; constant regions not specified
binding result: binds

B8: HuJS007-64 (antibody, V domains shown)
VH: B1 VH with T23A
VL: B2 VL
notes: 4B7 VH2-4 + 4B7VL1; constant regions not specified
binding result: binds

B9: HuJS007-69 (antibody, V domains shown)
VH: B1 VH with T23A
VL: B2 VL with P46L, F87Y, A100Q, L106I
notes: 4B7 VH2-4 + 4B7VL6; constant regions not specified
binding result: binds

B10: HuJS007-71 (antibody, V domains shown)
VH: B1 VH with T23A
VL: B2 VL with A100Q, L106I
notes: 4B7 VH2-4 + 4B7VL8; constant regions not specified
binding result: binds

B11: HuJS007-73 (antibody, V domains shown)
VH: B1 VH with T23A, A26G, T30S, H41P, N59Y, I70M, R72V, A89V, D99N, L114V
VL: B2 VL
notes: 1A5 VH5 + 4B7VL1; constant regions not specified
binding result: binds

B12: HuJS007-78 (antibody, V domains shown)
VH: B1 VH with T23A, A26G, T30S, H41P, N59Y, I70M, R72V, A89V, D99N, L114V
VL: B2 VL with P46L, F87Y, A100Q, L106I
notes: 1A5 VH5 + 4B7VL6; constant regions not specified
binding result: binds

B13: HuJS007-80 (antibody, V domains shown)
VH: B1 VH with T23A, A26G, T30S, H41P, N59Y, I70M, R72V, A89V, D99N, L114V
VL: B2 VL with A100Q, L106I
notes: 1A5 VH5 + 4B7VL8; constant regions not specified
binding result: binds

B14: HuJS007-89 (antibody, V domains shown)
VH: QVQLQESGPGLVKPSQTLSLTCAVSGYSISSGYYWNWIRQFPGKGLEWMGYIGYDGSNYYNPSLKNRVTMSVDTSKNQFSLKLSSVTAVDTAVYYCARNYYSGYFDSWGQGTTVTVSS
VL: B2 VL with A100Q, L106I
notes: 1A5 VH6 + 4B7VL8; constant regions not specified
binding result: binds

B15: HuJS007-100 (antibody, V domains shown)
VH: B14 VH with S30T, F41P, M49I, Y59N, N99D
VL: B2 VL
notes: 4B7 VH2-5 + 4B7VL1; constant regions not specified
binding result: binds

B16: HuJS007-105 (antibody, V domains shown)
VH: B14 VH with S30T, F41P, M49I, Y59N, N99D
VL: B2 VL with P46L, F87Y, A100Q, L106I
notes: 4B7 VH2-5 + 4B7VL6; constant regions not specified
binding result: binds

B17: HuJS007-107 (antibody, V domains shown)
VH: B14 VH with S30T, F41P, M49I, Y59N, N99D
VL: B2 VL with A100Q, L106I
notes: 4B7 VH2-5 + 4B7VL8; constant regions not specified
binding result: binds

B18: HuJS007-49 (antibody, V domains shown)
VH: B1 VH
VL: DIQMTQSPSFLSASVGDRVTITCRASQNVGTYVAWYQQKPGKAPKPLIYSTSYRYSGVPSRFSGSGSGTEFTLTISSLQPEDFATYFCHQYDTYPLTFGAGTKLELK
notes: 4B7 VH2-2 + 4B7VL4; constant regions not specified
binding result: binds

B19: HuJS007-50 (antibody, V domains shown)
VH: B1 VH
VL: B18 VL with F10S, R24Q, E70D, L73F, F83I
notes: 4B7 VH2-2 + 4B7VL5; constant regions not specified
binding result: binds

B20: HuJS007-56 (antibody, V domains shown)
VH: B1 VH with Q16E, A26G, H41P
VL: B18 VL with F10S, A43V, E70D, F83V
notes: 4B7 VH2-3 + 4B7VL2; constant regions not specified
binding result: binds

B21: HuJS007-57 (antibody, V domains shown)
VH: B1 VH with Q16E, A26G, H41P
VL: B18 VL with F10S, E70D
notes: 4B7 VH2-3 + 4B7VL3; constant regions not specified
binding result: binds

B22: HuJS007-58 (antibody, V domains shown)
VH: B1 VH with Q16E, A26G, H41P
VL: B18 VL
notes: 4B7 VH2-3 + 4B7VL4; constant regions not specified
binding result: binds

B23: HuJS007-59 (antibody, V domains shown)
VH: B1 VH with Q16E, A26G, H41P
VL: B18 VL with F10S, R24Q, E70D, L73F, F83I
notes: 4B7 VH2-3 + 4B7VL5; constant regions not specified
binding result: binds

B24: HuJS007-65 (antibody, V domains shown)
VH: B1 VH with T23A
VL: B18 VL with F10S, A43V, E70D, F83V
notes: 4B7 VH2-4 + 4B7VL2; constant regions not specified
binding result: binds

B25: HuJS007-66 (antibody, V domains shown)
VH: B1 VH with T23A
VL: B18 VL with F10S, E70D
notes: 4B7 VH2-4 + 4B7VL3; constant regions not specified
binding result: binds

B26: HuJS007-67 (antibody, V domains shown)
VH: B1 VH with T23A
VL: B18 VL
notes: 4B7 VH2-4 + 4B7VL4; constant regions not specified
binding result: binds

B27: HuJS007-68 (antibody, V domains shown)
VH: B1 VH with T23A
VL: B18 VL with F10S, R24Q, E70D, L73F, F83I
notes: 4B7 VH2-4 + 4B7VL5; constant regions not specified
binding result: binds

B28: HuJS007-74 (antibody, V domains shown)
VH: B14 VH with F41P, M49I, N66S
VL: B18 VL with F10S, A43V, E70D, F83V
notes: 1A5 VH5 + 4B7VL2; constant regions not specified
binding result: binds

B29: HuJS007-75 (antibody, V domains shown)
VH: B14 VH with F41P, M49I, N66S
VL: B18 VL with F10S, E70D
notes: 1A5 VH5 + 4B7VL3; constant regions not specified
binding result: binds

B30: HuJS007-76 (antibody, V domains shown)
VH: B14 VH with F41P, M49I, N66S
VL: B18 VL
notes: 1A5 VH5 + 4B7VL4; constant regions not specified
binding result: binds

B31: HuJS007-77 (antibody, V domains shown)
VH: B14 VH with F41P, M49I, N66S
VL: B18 VL with F10S, R24Q, E70D, L73F, F83I
notes: 1A5 VH5 + 4B7VL5; constant regions not specified
binding result: binds

B32: HuJS007-84 (antibody, V domains shown)
VH: B14 VH
VL: B18 VL with F10S, E70D
notes: 1A5 VH6 + 4B7VL3; constant regions not specified
binding result: binds

B33: HuJS007-101 (antibody, V domains shown)
VH: B14 VH with S30T, F41P, M49I, Y59N, N99D
VL: B18 VL with F10S, A43V, E70D, F83V
notes: 4B7 VH2-5 + 4B7VL2; constant regions not specified
binding result: binds

B34: HuJS007-102 (antibody, V domains shown)
VH: B14 VH with S30T, F41P, M49I, Y59N, N99D
VL: B18 VL with F10S, E70D
notes: 4B7 VH2-5 + 4B7VL3; constant regions not specified
binding result: binds

B35: HuJS007-103 (antibody, V domains shown)
VH: B14 VH with S30T, F41P, M49I, Y59N, N99D
VL: B18 VL
notes: 4B7 VH2-5 + 4B7VL4; constant regions not specified
binding result: binds

B36: HuJS007-104 (antibody, V domains shown)
VH: B14 VH with S30T, F41P, M49I, Y59N, N99D
VL: B18 VL with F10S, R24Q, E70D, L73F, F83I
notes: 4B7 VH2-5 + 4B7VL5; constant regions not specified
binding result: binds

B37: HuJS007-52 (antibody, V domains shown)
VH: B1 VH
VL: EIVMTQSPATLSVSPGERATLSCRASQNVGTYVAWYQQKPGQAPRPLIYSTSYRYSGIPARFSGSGSGTEFTLTISSLQSEDFAVYYCHQYDTYPLTFGQGTKLEIK
notes: 4B7 VH2-2 + 4B7VL7; constant regions not specified
binding result: binds

B38: HuJS007-54 (antibody, V domains shown)
VH: B1 VH
VL: B37 VL with R24K, Y87F
notes: 4B7 VH2-2 + 4B7VL9; constant regions not specified
binding result: binds

B39: HuJS007-61 (antibody, V domains shown)
VH: B1 VH with Q16E, A26G, H41P
VL: B37 VL
notes: 4B7 VH2-3 + 4B7VL7; constant regions not specified
binding result: binds
